In the assay the target is T1, monovalent hVISTA-ECD (amino acids 32-193 of SEQ ID NO: 1 with a 7xHis tail) (human, UniProt Q9H7M9 33-193).
T1 construct: also called huVISTA-His; human VISTA-ECD
Briefly: SPR, mAb on Protein A, 37C, pH 6.0; pH 6.0. Here is the method: Binding of several preparations of each of the '029 progeny clones and of the parent '029 antibodies, formatted as IgG1.3 antibodies, to human VISTA at pH 6.0 and 7.4 was measured by Surface plasmon resonance (SPR). SPR analysis was performed to measure koff and KD binding affinity measurements for VISTA Abs at acidic and neutral pHs using a Biacore® T100 instrument (GE Healthcare). Protein A (ThermoFisher Scientific catalog #21181) was diluted to 20 μg/ml in 10 mM sodium acetate pH 4.5 and immobilized onto flow cells of a CM5 biosensor following the manufacturer's amine coupling protocol (GE Healthcare), targeting 2,000 RU immobilization density of Protein A per flow cell. SPR experiments were conducted at 37° C. using PBST (137 mM sodium chloride, 2.7 mM potassium chloride, 10 mM phosphate buffer, 0.05% Tween® 20) running buffer at pH 7.4 and 6.0. Antibodies were diluted to 25 nM in PBST pH 7.4, and were captured across active biosensor flow cells at 5 ul/min for 60 seconds. A concentration series of 50-5 nM monovalent hVISTA-ECD (SEQ ID NO: 325) was prepared in pH 7.4 and 6.0 running buffers, and was injected over the captured antibodies at 40 ul/min to measure association and dissociation. Two 15 second injections of 10 mM glycine pH 1.5 were used to regenerate the Protein A capture surface between assay cycles. Rate constants ka (kₒₙ) and kd (koff) were derived from reference flow cell and 0 nM blank-subtracted sensorgrams, and were fit to a 1:1 binding model in Biacore® T200 Evaluation Software v.2.0. The affinity constant, KD was calculated as the ratio of rate constants koff/kₒₙ for each VISTA antibody.

T1 sequence (Q9H7M9 other isoform, or with tags, fused parts or gaps limits assumed): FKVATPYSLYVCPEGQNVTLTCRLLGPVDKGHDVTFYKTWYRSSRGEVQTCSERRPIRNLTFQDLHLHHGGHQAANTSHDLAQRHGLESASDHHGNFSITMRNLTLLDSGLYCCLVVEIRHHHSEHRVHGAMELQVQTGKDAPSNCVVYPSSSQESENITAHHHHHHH

B1: P1-072000 (P1-061029_F100fE_V102D) (antibody, human IgG1, kappa, V domains shown)
VH: EVQLVESGGGLVQPGKSLRLSCAASGFTLDDYAMHWVRQAPGKGLEWVSGINWNSANIGYADSVKGRFTISRDNAKNSLYLQMNSLRTEDTALYYCAKVPGYSGGWIDAEDDWGQGTMVTVSS
VL: not shown
notes: also called P1-72000
Molecule B1 yielded a dissociation constant Kd of 12 nM, a koff of 0.0023 s⁻¹ and an association rate constant (kon) of 200000 M⁻¹ s⁻¹.

B2: P1-071793 (P1-070916_HC_K16R_T84A, FW revertant) (antibody, V domains shown)
VH: EVQLVESGGGLVQPGRSLRLSCAASGFTLEDYAMHWVRQAPGKGLEWVSGINWNSANIGYADSVKGRFTISRDNAKNSLYLQMNSLRAEDTALYYCAKVPGYSGGWIDAEDDWGQGTMVTVSS
VL: not shown
notes: VH/VL only
B2 returned an equilibrium dissociation constant (Kd) of 8.1 nM, an off-rate (koff) of 0.0017 s⁻¹ and a kon of 210000 M⁻¹ s⁻¹.

B3: P1-071773 (P1-068767_HC_T84A, FW revertant) (antibody, V domains shown)
VH: EVQLVESGGGLVQPGKSLRLSCAASGFTLEDYAMHWVRQAPGKGLEWVSGIDWNSENIGYADSVKGRFTISRDNAKNSLYLQMNSLRAEDTALYYCAKVPGYSGGWIDAEDDWGQGTMVTVSS
VL: not shown
notes: VH/VL only
Molecule B3 displayed a Kd of 9.8 nM, a dissociation rate constant (koff) of 0.0026 s⁻¹ and a kon of 270000 M⁻¹ s⁻¹.

B4: P1-072008 (P1-061029_Y32E_F100fE) (antibody, human IgG1, kappa, V domains shown)
VH: EVQLVESGGGLVQPGKSLRLSCAASGFTLDDEAMHWVRQAPGKGLEWVSGINWNSANIGYADSVKGRFTISRDNAKNSLYLQMNSLRTEDTALYYCAKVPGYSGGWIDAEDVWGQGTMVTVSS
VL: not shown
notes: also called P1-72008
B4: the Kd came out at 88 nM, the dissociation rate constant (koff) came to 0.024 s⁻¹ and the on-rate (kon) is 270000 M⁻¹ s⁻¹.

B5: P1-071765 (P1-068761_HC_K16R, FW revertant) (antibody, V domains shown)
VH: EVQLVESGGGLVQPGRSLRLSCAASGFTLEDEAMHWVRQAPGKGLEWVSGINWNSEEIGYADSVKGRFTISRDNAKNSLYLQMNSLRTEDTALYYCAKVPGYSHGWIDAEDVWGQGTMVTVSS
VL: not shown
notes: VH/VL only
Regarding B5, the Kd came to 5 nM and the kon is 280000 M⁻¹ s⁻¹.

B6: P1-071767 (P1-068761_HC_T84A, FW revertant) (antibody, V domains shown)
VH: EVQLVESGGGLVQPGKSLRLSCAASGFTLEDEAMHWVRQAPGKGLEWVSGINWNSEEIGYADSVKGRFTISRDNAKNSLYLQMNSLRAEDTALYYCAKVPGYSHGWIDAEDVWGQGTMVTVSS
VL: not shown
notes: VH/VL only
B6 yielded an equilibrium dissociation constant (Kd) of 5.1 nM, a dissociation rate constant (koff) of 0.0016 s⁻¹ and a kon of 310000 M⁻¹ s⁻¹.

B7: P1-072004 (P1-061029_V102D) (antibody, human IgG1, kappa, V domains shown)
VH: EVQLVESGGGLVQPGKSLRLSCAASGFTLDDYAMHWVRQAPGKGLEWVSGINWNSANIGYADSVKGRFTISRDNAKNSLYLQMNSLRTEDTALYYCAKVPGYSGGWIDAFDDWGQGTMVTVSS
VL: not shown
notes: also called P1-72004
For the molecule B7, the Kd amounted to 180 nM, the off-rate (koff) was determined as 0.025 s⁻¹ and the kon was 140000 M⁻¹ s⁻¹.

B8: P1-071763 (P1-068761_HC_K16R_T84A, FW revertant) (antibody, V domains shown)
VH: EVQLVESGGGLVQPGRSLRLSCAASGFTLEDEAMHWVRQAPGKGLEWVSGINWNSEEIGYADSVKGRFTISRDNAKNSLYLQMNSLRAEDTALYYCAKVPGYSHGWIDAEDVWGQGTMVTVSS
VL: not shown
notes: VH/VL only
Regarding B8, the affinity, expressed as Kd, was 4.9 nM; the koff was determined as 0.0014 s⁻¹; the kon was found to be 290000 M⁻¹ s⁻¹.

B9: P1-071769 (P1-068767_HC_K16R_T84A, FW revertant) (antibody, V domains shown)
VH: EVQLVESGGGLVQPGRSLRLSCAASGFTLEDYAMHWVRQAPGKGLEWVSGIDWNSENIGYADSVKGRFTISRDNAKNSLYLQMNSLRAEDTALYYCAKVPGYSGGWIDAEDDWGQGTMVTVSS
VL: not shown
notes: VH/VL only
The molecule B9 displayed a dissociation constant Kd of 11 nM, a koff of 0.0026 s⁻¹ and an on-rate constant (kon) of 240000 M⁻¹ s⁻¹.

B10: P1-071771 (P1-068767_HC_K16R, FW revertant) (antibody, V domains shown)
VH: EVQLVESGGGLVQPGRSLRLSCAASGFTLEDYAMHWVRQAPGKGLEWVSGIDWNSENIGYADSVKGRFTISRDNAKNSLYLQMNSLRTEDTALYYCAKVPGYSGGWIDAEDDWGQGTMVTVSS
VL: not shown
notes: VH/VL only
Consider B10, for which the Kd was 11 nM, the off-rate constant (koff) is 0.0026 s⁻¹ and the kon was found to be 250000 M⁻¹ s⁻¹.
